“And” between values parts separate entries of the source, which are not always exact repeats. Identical values can stand only once. Like-named read-outs stand apart in the source and are kept apart here.
Tests used:
Assay in all cases: cryo-EM structure
[1] = molecular target: DUF4297 from Bacillus ap. HMH5848 (Bacillus ap. HMH5848)
[2] = molecular target: DUF4297 from Bacillus ap. HMH5848 (Bacillus ap. HMH5848); remark: listed apart in the source
[3] = molecular target: HerA from Bacillus ap. HMH5848 (Bacillus ap. HMH5848)
[4] = molecular target: HerA from Bacillus ap. HMH5848 (Bacillus ap. HMH5848); remark: listed apart in the source

stoichiometry N [1]	stoichiometry N [2]	stoichiometry N [3]	stoichiometry N [4]	Substance
12	12 and 4 and 6	–	–	DUF4297 from Bacillus ap. HMH5848 (natural protein)
–	–	6	6	HerA from Bacillus ap. HMH5848 (enzyme)

Source: doi:10.1101/2024.10.24.620088
